This note sets out measurements from article PMC3140604.

Substrate in series [1]: CC(=O)O
The series can be described thus: cells, lysate or membranes. The class given is cell-based, Homo sapiens. To be noted: Na+ competes with nicotinate for uptake via SLC5A8.

Substrate in series [2]: O=C(O)C(Cl)Cl
The series is described as follows: cells, lysate or membranes. To be noted: Na+ competes with nicotinate for uptake via SLC5A8. Type of series: cell-based, Homo sapiens.

B1: SLC5A8 (Homo sapiens) (protein)
chain: MDTPRGIGTFVVWDYVVFAGMLVISAAIGIYYAFAGGGQQTSKDFLMGGRRMTAVPVALSLTASFMSAVTVLGTPSEVYRFGAIFSIFAFTYFFVVVISAEVFLPVFYKLGITSTYEYLELRFNKCVRLCGTVLFIVQTILYTGIVIYAPALALNQVTGFDLWGAVVATGVVCTFYCTLGGLKAVIWTDVFQVGIMVAGFASVIIQAVVMQGGISTILNDAYDGGRLNFWNFNPNPLQRHTFWTIIIGGTFTWTSIYGVNQSQVQRYISCKSRFQAKLSLYINLVGLWAILTCSVFCGLALYSRYHDCDPWTAKKVSAPDQLMPYLVLDILQDYPGLPGLFVACAYSGTLSTVSSSINALAAVTVEDLIKPYFRSLSERSLSWISQGMSVVYGALCIGMAALASLMGALLQAALSVFGMVGGPLMGLFALGILVPFANSIGALVGLMAGFAISLWVGIGAQIYPPLPERTLPLHLDIQGCNSTYNETNLMTTTEMPFTTSVFQIYNVQRTPLMDNWYSLSYLYFSTVGTLVTLLVGILVSLSTGGRKQNLDPRYILTKEDFLSNFDIFKKKKHVLSYKSHPVEDGGTDNPAFNHIELNSDQSGKSNGTRL
For the protein B1, the Michaelis-Menten constant (Km) in series [1] came out at 1600 ± 100 µM; in series [2], 36 ± 7 µM.

As a reminder, the Km is the substrate concentration at which the rate is half of its maximum.
